In paper PMC1260013 (BMC Biochemistry, 2005) one finds Ki, Km and Vmax data, which are given here for 2 compounds.

The term Ki denotes a dissociation constant, usually derived from enzyme kinetics or from competition with a known ligand. The Km is the concentration of substrate that gives half-maximal velocity.

The target of one data set is M. tb ICD-2 (Mycobacterium tuberculosis, UniProt O53611). In words: biochemical.
In data set [1] the test system is NC(=O)c1ccc[n+]([C@@H]2O[C@H](COP(=O)(O)OP(=O)(O)OC[C@H]3O[C@@H](n4cnc5c(N)ncnc54)[C@H](OP(=O)(O)O)[C@@H]3O)[C@@H](O)[C@H]2O)c1. In words: purified protein. To be noted: pH 7.5; 25.0 °C; varied: cofactor.
For data set [2], the system named is O=C(O)CC(C(=O)O)C(O)C(=O)O. In words: purified protein. The following applies: pH 7.5; 25.0 °C.

Sequence of M. tb ICD-2 (O53611 whole entry): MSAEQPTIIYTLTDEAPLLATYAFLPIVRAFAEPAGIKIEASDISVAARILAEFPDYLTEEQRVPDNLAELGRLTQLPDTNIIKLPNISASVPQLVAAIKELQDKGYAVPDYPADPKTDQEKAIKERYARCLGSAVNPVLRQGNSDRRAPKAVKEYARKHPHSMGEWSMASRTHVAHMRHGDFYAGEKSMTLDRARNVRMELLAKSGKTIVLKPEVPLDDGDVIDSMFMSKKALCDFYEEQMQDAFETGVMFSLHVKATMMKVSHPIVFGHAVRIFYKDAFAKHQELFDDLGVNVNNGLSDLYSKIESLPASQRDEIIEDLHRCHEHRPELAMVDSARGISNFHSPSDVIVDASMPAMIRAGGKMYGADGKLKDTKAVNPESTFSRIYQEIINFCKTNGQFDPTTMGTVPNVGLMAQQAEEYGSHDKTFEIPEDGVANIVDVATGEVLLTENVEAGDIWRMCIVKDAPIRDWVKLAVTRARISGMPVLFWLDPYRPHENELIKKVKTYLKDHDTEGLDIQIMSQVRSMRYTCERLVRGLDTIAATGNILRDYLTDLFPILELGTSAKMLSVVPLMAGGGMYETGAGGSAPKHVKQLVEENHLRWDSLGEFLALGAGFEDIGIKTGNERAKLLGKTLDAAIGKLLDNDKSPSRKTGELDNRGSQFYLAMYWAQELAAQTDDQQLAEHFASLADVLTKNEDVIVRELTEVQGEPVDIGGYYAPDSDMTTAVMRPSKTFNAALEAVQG

As to `NC(=O)C1=CN([C@@H]2O[C@H](COP(=O)(O)OP(=O)(O)OC[C@H]3O[C@@H](n4cnc5c(N)ncnc54)[C@H](OP(=O)(O)O)[C@@H]3O)[C@@H](O)[C@H]2O)C=CC1` [NADPH], the Ki on M. tb ICD-2 turned out to be 4.6 µM.

With “M. tb ICD-1 (Mycobacterium tuberculosis H37Rv)”, in data set [1], the Km is 125 ± 5 µM and the Vmax was determined as 400 μM NADPH/min. In addition, in data set [2], the Km was 10 ± 5 µM and the Vmax is recorded as 380 μM NADPH/min.
